From patent US12065483 come the findings set out here.

In experiment [1] the target is Influenza Hemagglutinin A (influenza A virus). Put plainly: ELISA on Influenza Hemagglutinin A (1 ug/mL); 293 supernatant diluted 1:10000.
Experiment [2] has the same target. Kind of experiment: ELISA on Influenza Hemagglutinin A (1 ug/mL); 293 supernatant diluted 1:1000. For orientation: An ELISA detects its analyte on a solid surface through an enzyme-linked reagent.
In experiment [3] the target is Influenza Hemagglutinin B (influenza B virus). Put plainly: ELISA on Influenza Hemagglutinin B (1 ug/mL); 293 supernatant diluted 1:100.
Experiment [4] has the same target. Kind of experiment: ELISA on Influenza Hemagglutinin B (1 ug/mL); 293 supernatant diluted 1:10.
Experiment [5] shares this target. Put plainly: ELISA on Influenza Hemagglutinin B (1 ug/mL); 293 supernatant diluted 1:10000.
Experiment [6] concerns the target Influenza Hemagglutinin A (influenza A virus). Put plainly: ELISA on Influenza Hemagglutinin A (1 ug/mL); 293 supernatant diluted 1:10.
The target in experiment [7] is Influenza Hemagglutinin B (influenza B virus). Put plainly: ELISA on Influenza Hemagglutinin B (1 ug/mL); 293 supernatant diluted 1:1000.
In experiment [8] the target is Influenza Hemagglutinin A (influenza A virus). Kind of experiment: ELISA on Influenza Hemagglutinin A (1 ug/mL); 293 supernatant diluted 1:100.

B1: F2-02 (VHH)
VHH: QVQLVESGGGLVQAGGSLRLSCAASGRTFRSFAMGWFRQAPGKEREFVATISWWSNNTYYADSVKGRFTISRDIAKNTVYLQMNSLKPEDTAVYYCAADLGPWLTAGQYDYWGQGTQVTVSS
Turning to B1, the ELISA signal amounted to 0.405 in experiment [1]; 0.73 in experiment [2]; 0.863 in experiment [3]; 0.826 in experiment [4]; 0.266 in experiment [5]; 1.21 in experiment [6]. The ELISA signal came out at 0.61 in experiment [7] and 1.09 in experiment [8].

B2: F2-24 (VHH)
VHH: QVQLVESGGGLVQAGGSLRLSCASSGHTFNSYVMGWFRQAPGKEREFVAAIRPSGVSTYYADSVKGRFTISRDNAKNTVSLEMNSLKPEDTAVYYCAGDRDHSMMAVRRLSSYRQWGRGTQVTVSS
As to B2, the ELISA signal in experiment [1] is 0.15; in experiment [2], 0.279; in experiment [3], 1.85; in experiment [4], 1.69; in experiment [5] it was 1.45; in experiment [6] it was 0.444. Moreover, the ELISA signal came out at 1.63 in experiment [7] and 0.427 in experiment [8].

B3: F2-20 (VHH)
VHH: QVQLVESGGGLVQAGGSLRLSCAASGRTFSRYAMGWFRQAPGKEREFVARISWSGDITYYADSVKGRFTISRDNAKNTVYLQMNSLKPEDTAVYYCAADAILRTRPPYESDYWGQGTQVTVSS
For B3, the ELISA signal in experiment [1] was 0.269; in experiment [2], 0.442; in experiment [3], 1.52; in experiment [4], 1.58; in experiment [5], 0.805; in experiment [6] it was 0.884. For the same molecule, the ELISA signal in experiment [7] was determined as 1.2; in experiment [8], 0.629.

B4: F1-04 (VHH)
VHH: QVQLVESGGGLVQVGGSLRLSCAASERPSSNYAMGWFRQAPGKEQEFVAAIYWSGGGTAYGDSVKGRFTISKDNAKNTVYLQMNDLKPEDTGMYYCTTDHYGSWSYEYGSWGQGTQVTVSS
As to B4, the ELISA signal in experiment [1] stood at 0.058; in experiment [2], 0.366; in experiment [3], 1.63; in experiment [4], 1.47; in experiment [5] it was 0.205; in experiment [6], 1.76. The ELISA signal came out at 0.738 in experiment [7] and 2 in experiment [8].
